Test results taken from patent US20150246949A1, “Desmoglein 2 (DSG2) Binding Proteins and Uses Therefor” (UNIVERSITY OF WASHINGTON THROUGH ITS CENTER FOR …, priority 2012, published 2015).

Columns and labels:
[1] = biological target: T1, human DSG2 on cells (HeLa cells; polarized T84 cells) (human, UniProt Q14126 50-1118); experiment: attachment of 3H-labelled Ad3 virus (competitor) to HeLa cells pre-incubated with the dimeric knob
T1 construct: whole, on cells; also called HeLa cells, which express DSG2
T1 sequence: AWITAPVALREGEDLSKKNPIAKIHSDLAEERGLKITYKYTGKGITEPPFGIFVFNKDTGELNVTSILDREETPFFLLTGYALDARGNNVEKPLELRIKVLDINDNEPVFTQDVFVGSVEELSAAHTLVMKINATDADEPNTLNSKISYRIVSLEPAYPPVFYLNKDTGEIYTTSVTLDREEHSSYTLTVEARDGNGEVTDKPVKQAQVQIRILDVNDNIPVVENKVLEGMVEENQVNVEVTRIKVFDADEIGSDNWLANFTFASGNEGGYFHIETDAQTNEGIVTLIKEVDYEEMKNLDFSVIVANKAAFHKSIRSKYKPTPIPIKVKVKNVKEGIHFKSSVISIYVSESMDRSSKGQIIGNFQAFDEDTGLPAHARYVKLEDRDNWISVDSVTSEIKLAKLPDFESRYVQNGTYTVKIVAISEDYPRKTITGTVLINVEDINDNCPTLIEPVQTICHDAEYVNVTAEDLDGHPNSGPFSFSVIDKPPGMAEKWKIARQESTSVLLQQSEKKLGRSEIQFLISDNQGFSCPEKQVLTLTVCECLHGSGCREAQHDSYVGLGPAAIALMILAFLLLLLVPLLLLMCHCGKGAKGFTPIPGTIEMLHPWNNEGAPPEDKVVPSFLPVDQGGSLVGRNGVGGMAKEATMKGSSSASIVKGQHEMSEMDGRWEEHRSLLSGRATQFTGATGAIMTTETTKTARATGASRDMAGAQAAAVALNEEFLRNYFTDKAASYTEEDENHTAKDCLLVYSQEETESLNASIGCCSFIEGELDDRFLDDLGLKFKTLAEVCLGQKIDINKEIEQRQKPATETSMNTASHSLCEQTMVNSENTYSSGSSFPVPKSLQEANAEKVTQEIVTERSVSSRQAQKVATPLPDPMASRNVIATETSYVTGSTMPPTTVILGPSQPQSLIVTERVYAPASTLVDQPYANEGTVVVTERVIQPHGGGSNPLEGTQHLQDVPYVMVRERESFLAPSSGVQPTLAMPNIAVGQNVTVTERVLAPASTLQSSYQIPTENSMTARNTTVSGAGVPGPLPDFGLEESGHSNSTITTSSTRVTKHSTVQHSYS

[2] = biological target: T2, Recombinant human DSG2 protein (Leinco Technologies) (human, UniProt Q14126 50-609); experiment: Western blot of dimeric knob, soluble DSG2 as probe (Table 2: 0% residual binding)
T2 construct: also called soluble DSG2; soluble recombinant DSG2
T2 sequence: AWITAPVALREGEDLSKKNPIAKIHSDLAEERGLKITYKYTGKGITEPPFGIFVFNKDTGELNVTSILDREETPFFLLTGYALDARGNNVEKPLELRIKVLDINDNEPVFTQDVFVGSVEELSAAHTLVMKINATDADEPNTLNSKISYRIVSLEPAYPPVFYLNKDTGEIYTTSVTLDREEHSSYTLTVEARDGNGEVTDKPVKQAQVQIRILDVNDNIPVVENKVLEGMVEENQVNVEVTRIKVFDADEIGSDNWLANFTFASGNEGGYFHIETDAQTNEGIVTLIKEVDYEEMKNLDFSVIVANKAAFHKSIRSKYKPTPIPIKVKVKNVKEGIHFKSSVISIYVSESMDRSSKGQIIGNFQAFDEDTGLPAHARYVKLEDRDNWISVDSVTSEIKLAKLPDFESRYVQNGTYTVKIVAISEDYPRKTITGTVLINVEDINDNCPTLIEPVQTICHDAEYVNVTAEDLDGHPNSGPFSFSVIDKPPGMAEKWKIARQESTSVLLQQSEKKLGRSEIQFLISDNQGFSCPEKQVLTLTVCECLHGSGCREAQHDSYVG

[3] = biological target: T2, Recombinant human DSG2 protein (Leinco …); experiment: Western blot of dimeric knob (trimer band), soluble recombinant DSG2 as probe, anti-DSG2 mAb
[4] = biological target: T1, human DSG2 on cells (HeLa cells; …); experiment: cell-based or functional assay
soluble recombinant DSG2 = biological target: T3, soluble recombinant DSG2 (Homo sapiens, UniProt Q14126); experiment: Western blot of dimeric Ad3 fiber knob mutants probed with soluble DSG2; assay type: binding; details: purified dimerized knob mutants
T3 construct: purchased Leinco Technologies, Inc. (St. Louis, Mo.)
T3 sequence (Q14126 50-609 limits assumed): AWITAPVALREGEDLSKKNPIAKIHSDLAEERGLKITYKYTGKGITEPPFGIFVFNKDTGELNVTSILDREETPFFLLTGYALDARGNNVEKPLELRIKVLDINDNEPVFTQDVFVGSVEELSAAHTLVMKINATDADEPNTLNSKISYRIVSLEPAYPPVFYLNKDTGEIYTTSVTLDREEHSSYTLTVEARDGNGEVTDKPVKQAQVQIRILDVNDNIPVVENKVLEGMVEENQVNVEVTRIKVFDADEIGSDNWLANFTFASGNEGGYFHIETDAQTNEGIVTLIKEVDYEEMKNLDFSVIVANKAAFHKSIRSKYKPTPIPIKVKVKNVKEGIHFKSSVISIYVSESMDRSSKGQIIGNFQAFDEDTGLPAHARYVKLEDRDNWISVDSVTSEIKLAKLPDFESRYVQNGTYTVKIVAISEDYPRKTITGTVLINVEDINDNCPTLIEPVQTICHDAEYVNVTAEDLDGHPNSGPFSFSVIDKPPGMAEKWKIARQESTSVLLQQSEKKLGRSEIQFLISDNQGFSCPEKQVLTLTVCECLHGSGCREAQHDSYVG
Excerpt: FIG. 1. Residues found to be critically involved in binding to DSG2. A) Shown are the amino acid sequences of the Ad3 and Ad14p1 fiber knob. Beta sheets present in the Ad3 knob (PDB accession number 1H7Z_A) and Ad14 knob (PDB: 3F0Y_A) are indicated by lines. Black arrows indicate residues within the Ad3 fiber knob which, when mutated individually, ablate or reduce binding to DSG2. […] B) Schematic structure of dimeric Ad3 fiber knob mutants. The fiber knob domain and one shaft motif was fused through a flexible linker to a homodimerizing K-coil domain (41). The proteins are self-dimerizing and can be purified by His-Ni-NTA affinity chromatography. C-F) Analysis of binding of dimeric Ad3 fiber knob mutants to soluble DSG2. C and D) Coomassie staining. 10 μg of purified Ad3 fiber knob (unboiled) were loaded per lane. Trimeric forms of the fiber knobs are indicated by an arrow. The gel contained SDS and the loading buffer containing DTT, which caused the disassembly of dimers of trimeric fiber knobs as previously reported (41). E and F): Western blot using soluble recombinant DSG2 as a probe, followed by anti-DSG2-mAb and anti-mouse IgG-HRP. For comparison, JO-1 (0.5 μg/lane) is shown. The Western blots were scanned and signals were quantified.
Mini-PROTEAN precast gels (BIO-RAD, Hercules, Calif.) with 4-15% gradient polyacrylamide were used. A total of […] protein mixed with 2× loading buffer (10 mM Tris-HCl, pH6.8, 200 mM DTT, 4% SDS, 20% glycerol, 0.2% bromophenol blue) was loaded per lane. Samples were either boiled (B) for 5 min or loaded unboiled (UB). The following running buffer was used: 25 mM Tris, pH8.3, 0.192 M glycine, 0.1% SDS. After electrophoresis, proteins were transferred to nitrocellulose and incubated with recombinant human DSG2 protein and anti-DSG2 antibodies as described previously (42). The Western blots were scanned and quantified using the ImageJ 1.32 software (National Institutes of Health, Bethesda, Md.). JO-1 band intensity was set as 100%. […]

Ad3-GFP virus = experiment: Competition of Ad3-GFP virus infection on HeLa cells; assay type: cell-based, adenovirus serotype 3 (Ad3); details: HeLa cells pre-incubated with knob, 100 pfu/cell Ad3-GFP, GFP at 18 hours
Protocol: FIG. 3. Competition of Ad3 virus by dimerized Ad3 knob mutants. A) Relative attachment of ^3H-labeled Ad3 virus in the presence of dimeric fiber knob mutants. 1.8×10^5 HeLa cells were incubated with Ad3 knob mutants at a concentration of 2.5 and 100 μg/ml on ice for 1 hour. Then 400 pfu/cell of ^3H-Ad3 virus was added on ice for another hour. Unbound virus particles were washed away. Attachment of virus particles incubated with PBS was taken as 100%. N=3. B) Competition of Ad3-GFP virus infection on HeLa cells. 1.5×10^5 HeLa cells were seeded into 24 well plates. Cells were incubated with the Ad3 knob mutants at increasing concentrations for one hour at room temperature. 100 pfu/cell of Ad3-GFP virus were then added and GFP expression was analyzed 18 hours later by flow cytometry. Left panel: percentage of GFP positive cells. Right panel: mean fluorescence intensity. N=3. The standard deviation was less than 10%. C) Relative attachment of ^3H-labeled Ad3 virus in the presence of dimeric fiber knob mutants with multiple mutations. The study was performed as described in […]) The standard deviation was less than 10%. D) Competition of Ad3-GFP virus infection on HeLa cells. The study was performed as described in C) The standard deviation was less than 10%.
FIG. 9. Analysis of dimeric Ad3 fiber knob mutants with increased affinity to DSG2. A) Competition of Ad3-GFP virus infection on HeLa cells with dimeric affinity-enhanced mutant Y250F and JO-1 (dimeric wt Ad3 fiber knob). The experimental setting is as described for FIG. 3C. left panel: percentage of GFP positive cells. Right panel: mean fluorescence intensity. N=3. The standard deviation was less than 10%. […] 100 pfu/cell of Ad3GFP virus were then added and GFP expression was analyzed 18 hours later. […]
Competition studies were performed on HeLa cells, which express DSG2 (42). […] Transduction was measured based on GFP expression (FIG. 3B). […] Dimeric Ad3 knob mutants with combined mutations were also analyzed for their ability to compete with Ad3 virus for attachment (FIG. 3C) and infection (FIG. 3D).

B1: dimeric Ad3 fiber knob mutant D261N (designed binder)
chain: MKVSALKEKVSALKEKVSALKEKVSALKEKVSALKEGSGGGSGGGSGGGSNSIALKNNTLWTGPKPEANCIIEYGKQNPDSKLTLILVKNGGIVNGYVTLMGASDYVNTLFKNKNVSINVELYFDATGHILPDSSSLKTDLELKYKQTADFSARGFMPSTTAYPFVLPNAGTHNENYIFGQCYYKASNGALFPLEVTVMLNKRLPDSRTSYVMTFLWSLNAGLAPETTQATLITSPFTFSYIREDD
In the case of B1, the “Inhibition of attachment in the presence of dimeric knob (JO-1 = 100%)” value [1] is reported as 45%, the binding result [2] is reported as “no binding” and the “Western blot residual DSG2 binding (wtAd3 knob = 100%)” value [3] is reported as 0%. The “Inhibition of infection in the presence of dimeric knob (JO-1 = 100%)” value [4] was 5.3%.

B2: F265L (protein)
chain: MKVSALKEKVSALKEKVSALKEKVSALKEKVSALKEGSGGGSGGGSGGGSNSIALKNNTLWTGPKPEANCIIEYGKQNPDSKLTLILVKNGGIVNGYVTLMGASDYVNTLFKNKNVSINVELYFDATGHILPDSSSLKTDLELKYKQTADFSARGFMPSTTAYPFVLPNAGTHNENYIFGQCYYKASDGALLPLEVTVMLNKRLPDSRTSYVMTFLWSLNAGLAPETTQATLITSPFTFSYIREDD
With B2 the “DSG2 binding in Western blot compared to JO-1” value (soluble recombinant DSG2) was “almost completely ablated for DSG2 binding” and the “Competition of Ad3-GFP infection based on GFP expression” value (Ad3-GFP virus) was “least reduced”.

B3: dimeric Ad3 fiber knob mutant F265L (designed binder)
chain: MKVSALKEKVSALKEKVSALKEKVSALKEKVSALKEGSGGGSGGGSGGGSNSIALKNNTLWTGPKPEANCIIEYGKQNPDSKLTLILVKNGGIVNGYVTLMGASDYVNTLFKNKNVSINVELYFDATGHILPDSSSLKTDLELKYKQTADFSARGFMPSTTAYPFVLPNAGTHNENYIFGQCYYKASDGALLPLEVTVMLNKRLPDSRTSYVMTFLWSLNAGLAPETTQATLITSPFTFSYIREDD
B3 was tested, and the “Inhibition of attachment in the presence of dimeric knob (JO-1 = 100%)” value [1] was 55.6%, the binding result [2] was “no binding” and the “Western blot residual DSG2 binding (wtAd3 knob = 100%)” value [3] was 0%. For the same molecule, the “Inhibition of infection in the presence of dimeric knob (JO-1 = 100%)” value [4] was 17.6%.
